Results from patent US20260191907A1 (INSTITUT CURIE, published 2026).
One block for each binder: values may come before it.

Key:
[1] = biological target: T1, Recombinant FGFR4 (G&P Biosciences) (human, UniProt P22455 22-369); assay: SPR (BIAcore T200), single cycle kinetics, FGFR4 amine-immobilised, nanobody as analyte, heterogeneous ligand model, component 1 (kon1)
T1 construct: Bought protein; the SPR method says only 'Recombinant; also called rFGFR4; extracellular FGFR4
T1 sequence: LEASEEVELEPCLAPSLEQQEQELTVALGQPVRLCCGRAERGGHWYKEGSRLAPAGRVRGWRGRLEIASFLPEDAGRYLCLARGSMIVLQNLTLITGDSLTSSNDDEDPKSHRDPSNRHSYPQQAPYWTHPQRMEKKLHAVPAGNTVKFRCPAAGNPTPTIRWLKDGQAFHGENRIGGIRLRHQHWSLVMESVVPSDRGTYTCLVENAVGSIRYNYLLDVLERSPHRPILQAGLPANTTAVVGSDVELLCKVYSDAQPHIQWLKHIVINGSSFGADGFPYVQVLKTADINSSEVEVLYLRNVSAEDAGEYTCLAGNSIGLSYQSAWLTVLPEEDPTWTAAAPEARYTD
Description: (§1) FIG. 3: Affinity determination of nanobodies to recombinant protein via surface plasmon resonance spectroscopy. Single cycle kinetics analysis was performed on immobilized FGFR4 through covalent amine binding on the dextran based sensor chip. The analytes A8, B1, B5, F8 and mCh were injected in 5 different concentrations followed by a dissociation phase. A final dissociation step was added after the last injection step to determine Koff rates for the KD calculations. The black curves represent the measured data and red curves show the fit analysis (heterogeneous ligand model) performed with the BIAevaluation software.
(§2) Single cycle kinetics analysis was performed with the BIAcore® T200 instrument (GE Healthcare) on CMD200M sensor chips (XanTec bioanalytics GmbH) activated with a mixture of 300 mM NHS (N-hydroxysuccinimide) and 50 mM EDC (N-ethyl-N′-(dimethylaminopropyl) carbodiimide). Recombinant FGFR1, FGFR2, FGFR3 and FGFR4 (G&P Biosciences) were immobilized on the activated biosensors (800 to 12′000 RU; 1 RU=1 pg/mm²) followed by a blocking step with 1M ethanolamine. One flow channel per chip was used as a reference to provide background corrections. The nanobodies were injected at 5 different concentrations followed by a dissociation phase. Koff-rates were determined from a final dissociation step after the last injection. The measurements with FGFR4 were performed for each nanobody on freshly immobilized protein due to strong binding and incomplete dissociation from the surface. Immobilization flow rate was 5 μl/min and binding studies were performed at 30 μl/min. Binding parameters were determined with the heterogeneous ligand model fit of the BIAevaluation software. The black curves represent the measured data and red curves show the performed fit analysis.
(§3) To determine the binding affinity of the nanobodies to FGFR4, we performed surface plasmon resonance (SPR) spectroscopy with recombinant FGFR4. As already mentioned above, FGFR1 and FGFR2 are expressed on Rh4-FR4ko cells and flow cytometry analysis indicated no binding of the nanobodies to the cells. To further confirm FGFR4-specificity, we included also affinity measurements with recombinant FGFR1, FGFR2 and FGFR3. Nanobodies A8, B1, B5, F8, and mCh were injected in five different concentrations on a FGFR coated chip.

[2] = biological target: T1, Recombinant FGFR4 (G&P Biosciences); assay: SPR (BIAcore T200), single cycle kinetics, FGFR4 amine-immobilised, nanobody as analyte, heterogeneous ligand model, component 1 (koff1)
Description: as §1, §2
(§4) To determine the binding affinity of the nanobodies to FGFR4, we performed surface plasmon resonance (SPR) spectroscopy with recombinant FGFR4. As already mentioned above, FGFR1 and FGFR2 are expressed on Rh4-FR4ko cells and flow cytometry analysis indicated no binding of the nanobodies to the cells. […]

[3] = biological target: T1, Recombinant FGFR4 (G&P Biosciences); assay: SPR (BIAcore T200), single cycle kinetics, FGFR4 amine-immobilised, nanobody as analyte, heterogeneous ligand model, component 2 (kon2)
Description: as §1, §2, §3

[4] = biological target: T1, Recombinant FGFR4 (G&P Biosciences); assay: SPR (BIAcore T200), single cycle kinetics, FGFR4 amine-immobilised, nanobody as analyte, heterogeneous ligand model, component 2 (KD2)
Description: as §1, §2, §3

[5] = biological target: T1, Recombinant FGFR4 (G&P Biosciences); assay: SPR (BIAcore T200), single cycle kinetics, FGFR4 amine-immobilised, nanobody as analyte, heterogeneous ligand model, component 1 (KD1)
Description: as §1, §2, §3

[6] = biological target: T2, Recombinant FGFR3 (G&P Biosciences) (UniProt P22607 23-375, limits assumed); assay: SPR, FGFR3 immobilised, nanobody as analyte at five concentrations
T2 construct: Immobilised on the SPR chip
T2 sequence (looked up): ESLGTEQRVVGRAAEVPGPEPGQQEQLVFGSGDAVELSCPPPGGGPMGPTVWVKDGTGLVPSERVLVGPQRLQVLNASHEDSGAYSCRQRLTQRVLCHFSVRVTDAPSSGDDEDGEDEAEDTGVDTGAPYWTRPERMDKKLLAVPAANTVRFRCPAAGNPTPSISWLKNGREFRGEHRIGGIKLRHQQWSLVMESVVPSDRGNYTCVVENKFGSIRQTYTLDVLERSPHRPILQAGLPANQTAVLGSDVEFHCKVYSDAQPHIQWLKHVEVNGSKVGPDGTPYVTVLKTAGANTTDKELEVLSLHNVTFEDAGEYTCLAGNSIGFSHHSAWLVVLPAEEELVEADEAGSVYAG
Description: as §2
as §3, with “chip. Except for the negative control mCh, calculated KD values for FGFR4 binding were in the nano- and picomolar range (FIG. 3; Table 2). Affinity parameters could not be fitted with a 1:1 binding model and best fits were obtained with the heterogeneous ligand model of the BIAevaluation software resulting in two KD values for each candidate.” for “chip.”

[7] = biological target: T1, Recombinant FGFR4 (G&P Biosciences); assay: SPR (BIAcore T200), single cycle kinetics, FGFR4 amine-immobilised, nanobody as analyte, heterogeneous ligand model, component 2 (koff2)
Description: as §1, §2, §4

kon [1]: 1.84e+06 M⁻¹ s⁻¹
koff [2]: 0.000566 s⁻¹
kon [3]: 173000 M⁻¹ s⁻¹
Kd [4]: 0.216 pM
Kd [5]: 308 pM
binding result [6]: no binding
B1: B5 nanobody (anti-FGFR4 sdAb, NaLi-H1 library) (VHH)
VHH: EVQLQASGGGFVQPGGSLRLSCAASGRTSWLTTMGWFRQAPGKEREFVSAISSFSSKQGYYADSVKGRFTISRDNSKNTVYLQMNSLRAEDTATYYCAYASYPRHQGNGRWKDFVEYWGQGTQVTVSS
notes: Recombinant nanobody of about 17 kDa; also called B5 sdAb; not shown: C-terminal Myc/6xHis-tag and an additional cysteine

kon [1]: 1.11e+06 M⁻¹ s⁻¹
koff [2]: 1.18e-06 s⁻¹
koff [7]: 0.000992 s⁻¹
kon [3]: 216000 M⁻¹ s⁻¹
Kd [4]: 4600 pM
Kd [5]: 1.06 pM
binding result [6]: no binding
B2: B1 nanobody (anti-FGFR4 sdAb, NaLi-H1 library) (VHH)
VHH: EVQLQASGGGFVQPGGSLRLSCAASGYTSRSSAMGWFRQAPGKEREFVSAISDLTGYPYYYADSVKGRFTISRDNSKNTVYLQMNSLRAEDTATYYCAAYQDDKWTYGSQHGKYWGQGTQVTVSS
notes: also called B1 sdAb; not shown: C-terminal Myc/6xHis-tag and an additional cysteine

kon [1]: 314000 M⁻¹ s⁻¹
koff [7]: 0.00245 s⁻¹
kon [3]: 66700 M⁻¹ s⁻¹
Kd [4]: 36800 pM
Kd [5]: 0.00422 pM
binding result [6]: no binding
B3: A8 nanobody (anti-FGFR4 sdAb, NaLi-H1 library) (VHH)
VHH: EVQLQASGGGFVQPGGSLRLSCAASGRTYSRDTMGWFRQAPGKEREFVSAISSRHSHTTYYADSVKGRFTISRDNSKNTVYLQMNSLRAEDTATYYCAEWDVFDMHYALPPMWYWGQGTQVTVSS
notes: also called A8 sdAb; not shown: C-terminal Myc/6xHis-tag and an additional cysteine

kon [1]: 54500 M⁻¹ s⁻¹
koff [2]: 1.04e-06 s⁻¹
koff [7]: 0.00557 s⁻¹
kon [3]: 1.35e+06 M⁻¹ s⁻¹
Kd [4]: 4140 pM
Kd [5]: 19.1 pM
binding result [6]: no binding
B4: F8 nanobody (anti-FGFR4 sdAb, Gimli library) (VHH)
VHH: EVQLVESGGGLVQPGGSLRLSCAASGTGYALDDMGWVRQAPGKGLEWVSAISDDESMADYYADSVKGRFTISRDNSKNTVYLQMNSLRAEDTAVYYCASYKEYKYQSGHHYFAYRGQGTLVTVSS
notes: Recombinant nanobody of about 17 kDa; also called F8 sdAb; not shown: C-terminal Myc/6xHis-tag and an additional cysteine
